Laboratory results from patent publication US20240343789A1 (published 2024).
Like-named read-outs stand apart in the source and are kept apart here. Blank lines part the entries; values can stand above or below the binder they belong to.

Columns and labels:
Experiment in all cases: ECL ELISA titration
[1] = molecular target: T1, IGFR-L1 protein (Endosome/lysosome-associated apoptosis and autophagy regulator 1, ELAPOR1) (UniProt Q6UXG2 42-1013)
T1 chain: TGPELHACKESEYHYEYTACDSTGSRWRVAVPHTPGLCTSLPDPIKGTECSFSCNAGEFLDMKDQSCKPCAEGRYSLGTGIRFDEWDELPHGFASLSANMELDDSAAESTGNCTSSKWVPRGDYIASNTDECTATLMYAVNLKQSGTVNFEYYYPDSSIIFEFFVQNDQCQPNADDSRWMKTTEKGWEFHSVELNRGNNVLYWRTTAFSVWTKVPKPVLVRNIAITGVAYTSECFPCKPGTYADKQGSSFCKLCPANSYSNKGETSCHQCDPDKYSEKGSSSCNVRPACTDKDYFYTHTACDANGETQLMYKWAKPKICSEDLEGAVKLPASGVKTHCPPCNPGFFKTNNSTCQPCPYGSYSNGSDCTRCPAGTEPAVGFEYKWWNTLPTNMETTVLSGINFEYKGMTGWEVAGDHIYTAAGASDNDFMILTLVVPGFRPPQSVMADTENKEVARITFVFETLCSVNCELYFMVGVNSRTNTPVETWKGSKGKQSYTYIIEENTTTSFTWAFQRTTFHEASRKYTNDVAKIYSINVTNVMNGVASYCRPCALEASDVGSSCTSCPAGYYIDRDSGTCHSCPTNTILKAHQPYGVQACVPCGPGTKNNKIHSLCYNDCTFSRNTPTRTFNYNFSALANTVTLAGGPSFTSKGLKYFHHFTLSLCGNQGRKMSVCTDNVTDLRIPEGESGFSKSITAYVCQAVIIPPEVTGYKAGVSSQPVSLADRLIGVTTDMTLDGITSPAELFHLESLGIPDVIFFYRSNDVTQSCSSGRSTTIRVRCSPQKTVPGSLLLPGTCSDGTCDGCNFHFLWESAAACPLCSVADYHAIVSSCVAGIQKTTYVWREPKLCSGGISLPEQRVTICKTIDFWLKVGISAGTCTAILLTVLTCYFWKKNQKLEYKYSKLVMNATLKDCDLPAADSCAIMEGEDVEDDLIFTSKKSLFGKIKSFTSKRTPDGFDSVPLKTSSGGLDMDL

[2] = molecular target: T1, IGFR-L1 protein …
[3] = molecular target: T1, IGFR-L1 protein …
[4] = molecular target: T1, IGFR-L1 protein …
[5] = molecular target: T1, IGFR-L1 protein …
[6] = molecular target: T1, IGFR-L1 protein …

Kd [1]: 2.75 nM
B1: AB-3 (antibody, V domains shown)
VH: EVQLLESGGGLVQPGGSLSLSCAASGFTFTDFYMNWIRQPAGKAPEWLAFARNKANGYTTDYNPSVKGRFAISRDNTQNMFYLHMNTLRPEDTATYYCARGRPSDYWGQGVMVTVSS
VL: DIVMTQSPSSLAVSTGETVTMDCKSSQNLFYSGNQRNYLAWYQQKPGQSPTLLIYWASTRRSGVPDRFIGSGSGTDFTLTISSVQAEDLALYYCQQYDDPPYTFGAGTKLELKR

Kd [2]: 4.78 nM
B2: AB-5 (antibody, V domains shown)
VH: EVQLVESGGGLVQPGRSLKLSCAAPGFTFSASDMAWVRQAPTKGLEWVASISPSGDSTYYRDSILGRFTVSRDNAKSSLYLQMDSLRSEDTATYYCARHLGLGPFDHWGQGVMVTVSS
VL: DIQMTQSPSLLSASVGDRVTLSCKAGRDINNYLAWYQQKLGEAPKLLIYNANFLQTGIPSRFSGSGSGTDYTLTISSLQPEDVATYFCQQFNTWTGTFGGGTKLELKR

Kd [3]: 1.44 nM
B3: AB-7 (antibody, V domains shown)
VH: QVKLLQSGAALVKPGDSVKMSCKASGYSFTDYSIHWVKQSHGKSLEWIGYINPYSGGTTYNEKFKRKATLTVDKSSSTAYMEFSRLTSEDSAIYYCAREGMGITLYVMDAWGQGASVTVSS
VL: DIVLTQSPALAVSLGQRATVSCKASQTVTISRYHLLHWYQQKPGQQPTLLIYRASNLASGIPARFSGSGSGTDFTLTINPVQADDLASYYCQQSWGSPWTFGGGTKLELKR

Kd [4]: 2.8 nM
B4: AB-1 (antibody, V domains shown)
VH: EIQLQESGPGLVKPSQSLSLTCSVTDYTITSGFGWSWIRKFPGNKLEWMGYISYSGSTNYNPSLKSRLSLTRDTTKNQFFLQLISVTPEDTATYYCARSPLYGSNRYVVDAWGQGASVTVSS
VL: DVQMTQSPSILTASPGESVSINCKASKSISNYLAWYQQKPGKSINLLIYSGSTLQSGTPSRFSGSGSGTDFTLTIRNLDPEDFGRYYCQQHNENPYTFGPGTRLELKR

Kd [5]: 2.95 nM
B5: AB-9 (antibody, V domains shown)
VH: EVQLVESGGGLVQPTGSVKLSCAASGFIFTNYGMAWVRQAPKKGLEWVAYISYDGGSTYFRDSVRGRFTISRDNAKSTLYLHMDSLRSEDTATYYCTTPRLDTWGQGVMVTVSS
VL: DIQMTQSPSSLSASLGDRVTITCRPSQDIGNHLSWFQQKPGKSPRLMTYGATILEDGVPSRFSGSRSRSDYSLTISSLESEDTAIYYCLQYDKYPRTFGGGTKVELKR

Kd [4]: 2.22 nM
B6: AB-2 (antibody, V domains shown)
VH: EVQLVESDGGFVQPGRSLTLSCAASGFTFSDYYMSWVRQAPTKGLEWVATIGYDVSYTNYRDSVKGRFTISRDNAKSILSLQMDSLRSEDTATYYCARHPSYFDYWGQGVMVTVSS
VL: DIVMTQSPSSLAVSAGETVTINCKSSQSLFYSENQKNYLAWLQQKPGQSPKLLITWASTRQSGVPDRFIGSGSGTDFTLTISSVQAEDLAIYHCQQYYDTPRTFGGGTQLELKR

Kd [6]: 2.81 nM
B7: AB-11 (antibody, V domains shown)
VH: EVQLVESDGGFVQPGRSLKLSCAASGFTFSDYYMSWVRQAPTKGLEWVATIGYDGTYTNYRDSVKGRFTISRDNARSILYLQMDSLRSEDTATYYCARHPSYFDHWGQGVMVTVSS
VL: DIVMTQSPSSLAVSAGETVTINCKSSQSLLYSENQKNYLAWFQQRPGQSPKLLINWASTRQSGVPDRFIGSGSGTDFTLTISSVQAEDLATYHCQQYYDTPRTFGGGSKLELKR

Kd [6]: 2.79 nM
B8: AB-12 (antibody, V domains shown)
VH: EVKLLESGGGLVQPGGSMRLSCAASGFTFTDFYMNWIRQPAGKAPEWLGFIRNKANGYTTEYTPSVKGRFTISRDDTQNMLYLQMNTLRAEDTATYYCARHYYDGSYYYWYFDFWGPGTMVTVSS
VL: DVVLTQTPVAQPVTLGDQVSISCRSSQSLVKSNGNTYLEWFLQKPGQSPQLLIYKVSNRFSGVPDRFIGSGSGSDFTLKISRVEPEDLGVYYCFQAAHDPRTFGGGTKLELKR

Kd [1]: 2.76 nM
B9: AB-4 (antibody, V domains shown)
VH: EVQLVESGGGFVRPGKSLKLSCSASGFTFNTYGMHWIRQAPGKGLDWVSYISSSSATAYADAVKGRFTISRDNAKNTLYLQLNSLRSEDTAIYHCAREATYYGYPRYYFDYWGQGVMVTVSS
VL: DIQMTQSPSSMSVSLGDRVTFTCRASQDIGNYLSWYQQKPEKSPRLMIYTATDLEDGVPSRFSGSRSGSDYSLTINSLESEDRGIYFCLQHKQYPYTFGSGTKLELKR

Kd [3]: 2.74 nM
B10: AB-8 (antibody, V domains shown)
VH: QVQLQQSGAELAKPGSSVKISCKASGYTFTSYFISWIKQTTGQDLEYIGYINTGSGGTNYNEKFKGKATLTVDRSSSTAFMQLSSLTPDDSAVYYCARELRRVRGWFAYWGQGTLVTVSS
VL: DTQMTQSPASLFASLGETVTIQCQASEDISSGLAWYQQKPGKSPHLLIYGANSLQDGVPSRFSGSGSGTQYSLKITNMQADDEGVYFCQQGLKYPFTFGSGTKLEIKR

Kd [5]: 1.01 nM
B11: AB-10 (antibody, V domains shown)
VH: GVQLVESGGGLVQSGRSIKVSCEASGFTFSNFYMAWVRQAPTKGLEWVASISSGGGNTHYRDSVRGRFTISRNNAKSTLYLQMDSLNSEDTATYYCARDPGGGSPYWYLDFWGPGTMVTVSS
VL: DIVLTQSPALAVSLGQRATISCRANQNVDFYDNTYLHWYQQKPGQQPKLLIYLASNLASGIPARFSGGGSGTDFTLTIDPVEADDTATYYCQQSRNLPNTFGAGTKLELKR

Kd [2]: 5.27 nM
B12: AB-6 (antibody, V domains shown)
VH: EVQLVESDGGLVQPGRSLKLSCAASGFSFSDYYMAWLRQAPTKGLEWVATISHDGTGTYFRDSVKGRFTISRDNVKSTLYLQLDSLRSEDTATYYCARHKDGGYKDYWGQGVMVTVSS
VL: DIKMTQSPSPLSASLGERVTISCRASDNIDNYLSWYQKKEDGSVRLLIYHTSRLQPGAPSRFSGSGSGKDYSLTISGLESEDIATYYCQQTYTPYTFGAGTKLELRR
